From US20200385425A1

Target: PDZ1/2 domain (Homo sapiens (Human)), P78352
Assay: SPR, Biacore 3000, PDZ1/2 amine-coupled on CM5 chip, peptide as analyte, 1:1 binding model

Sequence of PDZ1/2 domain (Homo sapiens (Human)), P78352 (P78352 65-246 limits assumed): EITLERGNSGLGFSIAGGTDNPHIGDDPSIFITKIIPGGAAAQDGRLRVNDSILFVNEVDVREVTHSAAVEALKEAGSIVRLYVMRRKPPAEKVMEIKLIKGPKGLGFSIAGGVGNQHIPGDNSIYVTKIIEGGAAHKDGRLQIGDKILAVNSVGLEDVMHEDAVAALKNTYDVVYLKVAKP

B1: chimeric peptide YE-NA-1 (peptide)
peptide: YGRKKRRQRRRYEKLSSIESDV
modifications: not checked
Kd: 54.4 nM
